IC50 data for eleven molecules are collected here from patent US20170266254A1 (AILERON THERAPEUTICS, published 2017).

The assay addresses T1, C-terminally 6x Histidine-tagged Beta-Catenin (aa 134-668, 59 KD) (UniProt P35222 134-668).
T1 construct: range 134-668; Armadillo repeat region
T1 sequence: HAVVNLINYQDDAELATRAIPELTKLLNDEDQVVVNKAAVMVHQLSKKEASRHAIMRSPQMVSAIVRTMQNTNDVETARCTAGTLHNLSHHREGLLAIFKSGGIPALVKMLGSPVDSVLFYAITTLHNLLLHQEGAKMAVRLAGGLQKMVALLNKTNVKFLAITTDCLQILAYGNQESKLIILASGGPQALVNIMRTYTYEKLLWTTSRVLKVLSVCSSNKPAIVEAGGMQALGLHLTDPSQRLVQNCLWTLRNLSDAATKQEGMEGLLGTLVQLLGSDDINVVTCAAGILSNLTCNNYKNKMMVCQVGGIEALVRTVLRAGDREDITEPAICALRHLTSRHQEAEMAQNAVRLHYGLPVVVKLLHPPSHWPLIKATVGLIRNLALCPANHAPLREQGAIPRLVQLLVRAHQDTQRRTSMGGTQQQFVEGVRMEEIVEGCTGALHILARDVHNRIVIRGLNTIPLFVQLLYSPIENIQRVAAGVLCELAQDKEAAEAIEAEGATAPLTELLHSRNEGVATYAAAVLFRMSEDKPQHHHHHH
As to the kind of experiment: competitive fluorescence polarization, FAM-labelled linear probe as competitor, His-tagged beta-catenin 134-668. An outline of the steps:
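FP competition in 25 mM Tris-HCl pH 7.5, 200 mM NaCl, 5 mM CHAPS, 2 mM DTT at room temperature. Competitor peptides at 40–0.7 μM 2× working range, constant DMSO. Probe (benchmark peptide with N-terminal FAM via β-Ala spacer) from 25 nM 10× stock. Read after 3 h in the dark, ex 485/em 528 nm.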

Changes are numbered by the printed parent chain. Bridges are numbered along the chain shown (N, C = ends). [ ]: non-standard residue; d: D form. R8 = C=CCCCCCC[C@@](C)(N)C(=O)O; S5 = C=CCCC[C@](C)(N)C(=O)O Bounds are passed on as bounds.

Take Ac-LGANDELISFKDEGEQEEKSS-NH2 (Linear, not crosslinked) [SP15]: the IC50 (usually the concentration at which inhibition is half-maximal) was 6.08 µM.

B1: SP16 (peptide)
peptide: Ac-LGANDELISF[S5]DEG[S5]QEEKSSN-NH2
modifications: staple 11-15
SMILES: CC[C@H](C)[C@H](NC(=O)[C@H](CC(C)C)NC(=O)[C@H](CCC(=O)O)NC(=O)[C@H](CC(=O)O)NC(=O)[C@H](CC(N)=O)NC(=O)[C@H](C)NC(=O)CNC(=O)[C@H](CC(C)C)NC(C)=O)C(=O)N[C@@H](CO)C(=O)N[C@@H](Cc1ccccc1)C(=O)N[C@@]1(C)CCCC=CCCC[C@@](C)(C(=O)N[C@@H](CCC(N)=O)C(=O)N[C@@H](CCC(=O)O)C(=O)N[C@@H](CCC(=O)O)C(=O)N[C@@H](CCCCN)C(=O)N[C@@H](CO)C(=O)N[C@@H](CO)C(=O)N[C@@H](CC(N)=O)C(N)=O)NC(=O)CNC(=O)[C@H](CCC(=O)O)NC(=O)[C@H](CC(=O)O)NC1=O
On to B1, for which the half-maximal inhibitory concentration (IC50) is no less than 100 µM.

B2: SP17 (peptide)
peptide: Ac-LGANDELISFK[S5]EGE[S5]EEKSSN-NH2
modifications: staple 12-16
SMILES: CC[C@H](C)[C@H](NC(=O)[C@H](CC(C)C)NC(=O)[C@H](CCC(=O)O)NC(=O)[C@H](CC(=O)O)NC(=O)[C@H](CC(N)=O)NC(=O)[C@H](C)NC(=O)CNC(=O)[C@H](CC(C)C)NC(C)=O)C(=O)N[C@@H](CO)C(=O)N[C@@H](Cc1ccccc1)C(=O)N[C@@H](CCCCN)C(=O)N[C@@]1(C)CCCC=CCCC[C@@](C)(C(=O)N[C@@H](CCC(=O)O)C(=O)N[C@@H](CCC(=O)O)C(=O)N[C@@H](CCCCN)C(=O)N[C@@H](CO)C(=O)N[C@@H](CO)C(=O)N[C@@H](CC(N)=O)C(N)=O)NC(=O)[C@H](CCC(=O)O)NC(=O)CNC(=O)[C@H](CCC(=O)O)NC1=O
As to B2, the half-inhibitory concentration (IC50) came out at 52.9 µM.

B3: SP19 (peptide)
peptide: Ac-LGANDELISFKDEGE[S5]EEK[S5]SN-NH2
modifications: staple 16-20
SMILES: CC[C@H](C)[C@H](NC(=O)[C@H](CC(C)C)NC(=O)[C@H](CCC(=O)O)NC(=O)[C@H](CC(=O)O)NC(=O)[C@H](CC(N)=O)NC(=O)[C@H](C)NC(=O)CNC(=O)[C@H](CC(C)C)NC(C)=O)C(=O)N[C@@H](CO)C(=O)N[C@@H](Cc1ccccc1)C(=O)N[C@@H](CCCCN)C(=O)N[C@@H](CC(=O)O)C(=O)N[C@@H](CCC(=O)O)C(=O)NCC(=O)N[C@@H](CCC(=O)O)C(=O)N[C@@]1(C)CCCC=CCCC[C@@](C)(C(=O)N[C@@H](CO)C(=O)N[C@@H](CC(N)=O)C(N)=O)NC(=O)[C@H](CCCCN)NC(=O)[C@H](CCC(=O)O)NC(=O)[C@H](CCC(=O)O)NC1=O
As to B3, the IC50 was no less than 100 µM.

B4: SP18 (peptide)
peptide: Ac-LGANDELISFKDEG[S5]QEE[S5]SSN-NH2
modifications: staple 15-19
SMILES: CC[C@H](C)[C@H](NC(=O)[C@H](CC(C)C)NC(=O)[C@H](CCC(=O)O)NC(=O)[C@H](CC(=O)O)NC(=O)[C@H](CC(N)=O)NC(=O)[C@H](C)NC(=O)CNC(=O)[C@H](CC(C)C)NC(C)=O)C(=O)N[C@@H](CO)C(=O)N[C@@H](Cc1ccccc1)C(=O)N[C@@H](CCCCN)C(=O)N[C@@H](CC(=O)O)C(=O)N[C@@H](CCC(=O)O)C(=O)NCC(=O)N[C@@]1(C)CCCC=CCCC[C@@](C)(C(=O)N[C@@H](CO)C(=O)N[C@@H](CO)C(=O)N[C@@H](CC(N)=O)C(N)=O)NC(=O)[C@H](CCC(=O)O)NC(=O)[C@H](CCC(=O)O)NC(=O)[C@H](CCC(N)=O)NC1=O
With B4, the IC50 came to 60.1 µM.

B5: SP20 (peptide)
peptide: Ac-LGANDELISF[R8]DEGEQE[S5]KSSN-NH2
modifications: staple 11-18
SMILES: CC[C@H](C)[C@H](NC(=O)[C@H](CC(C)C)NC(=O)[C@H](CCC(=O)O)NC(=O)[C@H](CC(=O)O)NC(=O)[C@H](CC(N)=O)NC(=O)[C@H](C)NC(=O)CNC(=O)[C@H](CC(C)C)NC(C)=O)C(=O)N[C@@H](CO)C(=O)N[C@@H](Cc1ccccc1)C(=O)N[C@]1(C)CCCCCCC=CCCC[C@@](C)(C(=O)N[C@@H](CCCCN)C(=O)N[C@@H](CO)C(=O)N[C@@H](CO)C(=O)N[C@@H](CC(N)=O)C(N)=O)NC(=O)[C@H](CCC(=O)O)NC(=O)[C@H](CCC(N)=O)NC(=O)[C@H](CCC(=O)O)NC(=O)CNC(=O)[C@H](CCC(=O)O)NC(=O)[C@H](CC(=O)O)NC1=O
Take B5: the 50% inhibitory concentration (IC50) was no less than 100 µM.

B6: SP60 (peptide)
peptide: Ac-LGANDELISF[S5]NQG[S5]QAAKSSNNSSA[S5]RNL[S5]AVKSSLV-NH2
modifications: staple 11-15, 27-31
SMILES: CC[C@H](C)[C@H](NC(=O)[C@H](CC(C)C)NC(=O)[C@H](CCC(=O)O)NC(=O)[C@H](CC(=O)O)NC(=O)[C@H](CC(N)=O)NC(=O)[C@H](C)NC(=O)CNC(=O)[C@H](CC(C)C)NC(C)=O)C(=O)N[C@@H](CO)C(=O)N[C@@H](Cc1ccccc1)C(=O)N[C@@]1(C)CCCC=CCCC[C@@](C)(C(=O)N[C@@H](CCC(N)=O)C(=O)N[C@@H](C)C(=O)N[C@@H](C)C(=O)N[C@@H](CCCCN)C(=O)N[C@@H](CO)C(=O)N[C@@H](CO)C(=O)N[C@@H](CC(N)=O)C(=O)N[C@@H](CC(N)=O)C(=O)N[C@@H](CO)C(=O)N[C@@H](CO)C(=O)N[C@@H](C)C(=O)N[C@@]2(C)CCCC=CCCC[C@@](C)(C(=O)N[C@@H](C)C(=O)N[C@H](C(=O)N[C@@H](CCCCN)C(=O)N[C@@H](CO)C(=O)N[C@@H](CO)C(=O)N[C@@H](CC(C)C)C(=O)N[C@H](C(N)=O)C(C)C)C(C)C)NC(=O)[C@H](CC(C)C)NC(=O)[C@H](CC(N)=O)NC(=O)[C@H](CCCNC(=N)N)NC2=O)NC(=O)CNC(=O)[C@H](CCC(N)=O)NC(=O)[C@H](CC(N)=O)NC1=O
B6: the concentration for half-maximal inhibition (IC50) was no less than 100 µM.

B7: SP64 (peptide)
peptide: LGANDELISFANEGAQEEKSSNNSSAARNLADVKSSLV
modifications: not fully specified; N-terminal acetyl; C-terminal amide; $ = (S)-alpha-(2'-pentenyl)alanine at positions 11 and 15 (first crosslink) and 27 and 31 (second crosslink), each pair joined by an all-carbon crosslinker with one double bond
With B7, the half-inhibitory concentration (IC50) was found to be 0.541 µM.

B8: SP61 (peptide)
peptide: Ac-LGANDELISW[S5]DEG[S5]QQEKSSENSSA[S5]RDL[S5]NVKSSLV-NH2
modifications: staple 11-15, 27-31
SMILES: CC[C@H](C)[C@H](NC(=O)[C@H](CC(C)C)NC(=O)[C@H](CCC(=O)O)NC(=O)[C@H](CC(=O)O)NC(=O)[C@H](CC(N)=O)NC(=O)[C@H](C)NC(=O)CNC(=O)[C@H](CC(C)C)NC(C)=O)C(=O)N[C@@H](CO)C(=O)N[C@@H](Cc1c[nH]c2ccccc12)C(=O)N[C@@]1(C)CCCC=CCCC[C@@](C)(C(=O)N[C@@H](CCC(N)=O)C(=O)N[C@@H](CCC(N)=O)C(=O)N[C@@H](CCC(=O)O)C(=O)N[C@@H](CCCCN)C(=O)N[C@@H](CO)C(=O)N[C@@H](CO)C(=O)N[C@@H](CCC(=O)O)C(=O)N[C@@H](CC(N)=O)C(=O)N[C@@H](CO)C(=O)N[C@@H](CO)C(=O)N[C@@H](C)C(=O)N[C@@]2(C)CCCC=CCCC[C@@](C)(C(=O)N[C@@H](CC(N)=O)C(=O)N[C@H](C(=O)N[C@@H](CCCCN)C(=O)N[C@@H](CO)C(=O)N[C@@H](CO)C(=O)N[C@@H](CC(C)C)C(=O)N[C@H](C(N)=O)C(C)C)C(C)C)NC(=O)[C@H](CC(C)C)NC(=O)[C@H](CC(=O)O)NC(=O)[C@H](CCCNC(=N)N)NC2=O)NC(=O)CNC(=O)[C@H](CCC(=O)O)NC(=O)[C@H](CC(=O)O)NC1=O
Consider B8, for which the IC50 amounted to 1 µM.

B9: SP63 (peptide)
peptide: Ac-LGANDELISF[S5]NEG[S5]QAEKSSNNSSA[S5]RNL[S5]DVKSSLV-NH2
modifications: staple 11-15, 27-31
SMILES: CC[C@H](C)[C@H](NC(=O)[C@H](CC(C)C)NC(=O)[C@H](CCC(=O)O)NC(=O)[C@H](CC(=O)O)NC(=O)[C@H](CC(N)=O)NC(=O)[C@H](C)NC(=O)CNC(=O)[C@H](CC(C)C)NC(C)=O)C(=O)N[C@@H](CO)C(=O)N[C@@H](Cc1ccccc1)C(=O)N[C@@]1(C)CCCC=CCCC[C@@](C)(C(=O)N[C@@H](CCC(N)=O)C(=O)N[C@@H](C)C(=O)N[C@@H](CCC(=O)O)C(=O)N[C@@H](CCCCN)C(=O)N[C@@H](CO)C(=O)N[C@@H](CO)C(=O)N[C@@H](CC(N)=O)C(=O)N[C@@H](CC(N)=O)C(=O)N[C@@H](CO)C(=O)N[C@@H](CO)C(=O)N[C@@H](C)C(=O)N[C@@]2(C)CCCC=CCCC[C@@](C)(C(=O)N[C@@H](CC(=O)O)C(=O)N[C@H](C(=O)N[C@@H](CCCCN)C(=O)N[C@@H](CO)C(=O)N[C@@H](CO)C(=O)N[C@@H](CC(C)C)C(=O)N[C@H](C(N)=O)C(C)C)C(C)C)NC(=O)[C@H](CC(C)C)NC(=O)[C@H](CC(N)=O)NC(=O)[C@H](CCCNC(=N)N)NC2=O)NC(=O)CNC(=O)[C@H](CCC(=O)O)NC(=O)[C@H](CC(N)=O)NC1=O
B9: the IC50 worked out at 1.19 µM.

B10: SP62 (peptide)
peptide: B7 peptide with N29D
modifications: not fully specified; N-terminal acetyl; C-terminal amide; $ = (S)-alpha-(2'-pentenyl)alanine at positions 11 and 15 (first crosslink) and 27 and 31 (second crosslink), each pair joined by an all-carbon crosslinker with one double bond
B10: the IC50 was found to be 0.07 µM.
